Source: the RNAGym collection of RNA variant scans (doi:10.7554/elife.80360)

B1: Hairpin Ribozyme (parent)
chain: GUCCUCUUUCACGUGCGCGUGAAAGAGAGAAGUGAACCAGAGAAACACACGUUGUGGUAUAUUACCUGGUA

Variants of: B1
Assay: self-cleavage, relative activity (ratio to wild type); higher = more cleavage; co-transcriptional

Row | Variant | self-cleavage
1 | A26U G51C | 0.447
2 | A26U G51A | 0.661
3 | A26U G51U | 0.614
4 | G27C A41C | 0.228
5 | G27C A41U | 0.367
6 | G27C G69A | 0.0883
7 | A28G A49C | 0.208
8 | A26U U63A | 0.127
9 | A26G G27C | 0.215
10 | G27U G56C | 0.149
11 | A28C U62G | 0.18
12 | A28C U62A | 0.159
13 | A28C U62C | 0.203
14 | A28C A47U | 0.0267
15 | A26U | 0.683
16 | A28C A45C | 0.0427
17 | A26G C38A | 0.131
18 | A26U A59G | 0.181
19 | A26G G68A | 0.309
20 | A26U A44G | 0.288
21 | A26U A44C | 0.0769
22 | A26U A44U | 0.141
23 | A26G U58A | 0.755
24 | A26G U58G | 0.693

Row | Variant | self-cleavage
25 | A28C G69C | 0.262
26 | A28C G69A | 0.168
27 | G27U A44G | 0.193
28 | G27U A44C | 0.0839
29 | A26U A35C | 0.846
30 | A26U A35U | 0.302
31 | A26G U60G | 0.717
32 | A28G A39G | 0.357
33 | G27A A39C | 0.2
34 | A28U C37G | 0.193
35 | A28U C37U | 0.376
36 | G27C G54A | 0.133
37 | G27A U60C | 0.657
38 | G27U C46U | 0.12
39 | A28C U33C | 0.107
40 | A26G A47G | 0.161
41 | G27A A30G | 0.0562
42 | G27A A30C | 0.141
43 | A28G C38U | 0.547
44 | A28G C38A | 0.168
45 | A28G C38G | 0.169
46 | A28G A64G | 0.425
47 | A28U A35C | 0.704
48 | A28U A35G | 0.599

Row | Variant | self-cleavage
49 | A28U A49C | 0.18
50 | A28C U70A | 0.468
51 | A28U U60C | 0.871
52 | G27C G32U | 0.15
53 | A28G U53A | 1.01
54 | A28G U53C | 1.06
55 | A28G U53G | 1.13
56 | A26G C65A | 0.702
57 | A26U A28U | 0.257
58 | A26U A28C | 0.155
59 | A28G G54A | 0.646
60 | A26U U60A | 0.328
61 | G27U A49U | 0.141
62 | G27U U67A | 0.177
63 | A28G U33A | 0.157
64 | G27U A39C | 0.107
65 | G27U A39U | 0.144
66 | A26G A49C | 0.148
67 | A26G A49U | 0.288
68 | A28G U70A | 1.05
69 | G27A G32A | 0.0917
70 | G27A G32C | 0.226
71 | A26U A64C | 0.15
72 | A28G A36U | 0.7

Row | Variant | self-cleavage
73 | G27A U67C | 0.141
74 | G27C A39G | 0.0932
75 | A26U C65A | 0.701
76 | A26U C65U | 0.161
77 | G27C U53G | 0.169
78 | G27C U53A | 0.19
79 | G27C U55C | 0.186
80 | A26U U58G | 0.631
81 | A26G G54A | 0.605
82 | G27C C65U | 0.159
83 | G27U C66U | 0.288
84 | G27U C66G | 0.126
85 | A26G A61C | 0.173
86 | A28U C46U | 0.046
87 | A28U C46G | 0.109
88 | A26G U53G | 0.682
89 | G27U A30C | 0.1
90 | A28G G29C | 0.12
91 | A26U A39C | 0.225
92 | A26U A39G | 0.207
93 | A28C U53C | 0.598
94 | A26U G69A | 0.203
95 | G27C G40U | 0.0774
96 | A28C A44C | 0.134

Row | Variant | self-cleavage
97 | A28C A44G | 0.0991
98 | G27A G51U | 0.458
99 | G27A G51A | 0.337
100 | A26U U55G | 0.281
101 | A26U U55C | 0.23
102 | A26G A43U | 0.121
103 | A26G A41U | 1.24
104 | A26G A41G | 1.13
105 | A28G A41G | 0.908
106 | A28G A41C | 0.961
107 | G27U U60G | 0.0793
108 | A26G U33A | 0.135
109 | A26U U62G | 0.141
110 | A26U C48G | 0.117
111 | A28C A49C | 0.119
112 | A26G U63G | 0.183
113 | A26G C37A | 0.268
114 | G27U U33A | 0.121
115 | G27U U33C | 0.109
116 | A28U C65A | 0.497
117 | G27A A47C | 0.214
118 | A26G A71C | 1.55
119 | G27U A28G | 0.119
120 | G27A U62A | 0.155

Row | Variant | self-cleavage
121 | A28C U52G | 0.301
122 | G27C G56C | 0.134
123 | A28C U58G | 0.151
124 | A28C U58A | 0.401
125 | G27A A61U | 0.155
126 | A28G U67A | 0.31
127 | A28C C50G | 0.107
128 | A28C C50A | 0.151
129 | G27C U63A | 0.174
130 | G27C U63C | 0.222
131 | A28G A45U | 0.201
132 | A28C A61C | 0.122
133 | A28G G51C | 1.08
134 | G27A U58A | 0.176
135 | A28U A64G | 0.167
136 | A28U A64C | 0.278
137 | A28U A64U | 0.0714
138 | A26G C50G | 0.211
139 | G27C C46A | 0.0983
140 | G27C C46G | 0.152
141 | A26U A47U | 0.0699
142 | A28U C38U | 0.343
143 | G27U A41G | 0.305
144 | G27U A41U | 0.554

Row | Variant | self-cleavage
145 | A28G A61G | 0.279
146 | A28G U60C | 0.795
147 | A28G U60G | 0.97
148 | G27U U53G | 0.23
149 | G27A G34C | 0.945
150 | G27A G34U | 1.3
151 | G27U A71G | 0.261
152 | G27U A71U | 0.166
153 | A28C U63A | 0.0573
154 | A28U A39U | 0.222
155 | A28U A39G | 0.143
156 | A28C C65G | 0.229
157 | A28U G29U | 0.0995
158 | A28U G29C | 0.0715
159 | G27C U60A | 0.177
160 | A28C A41C | 0.625
161 | G27A C48A | 0.178
162 | G27A C48U | 0.183
163 | G27C U58C | 0.214
164 | G27C A44U | 0.0991
165 | G27C A44G | 0.21
166 | A28G G68A | 0.349
167 | A26U U33C | 0.141
